Assay results reported in US6960429B2, “Inhibition of viral gene activities” (priority 1997, dated 2005).

Key:
[1] = biological target: T1, NΔ360 (derivative of EBNA1) (Epstein-Barr virus, UniProt P03211); type: biochemical
T1 construct: NΔ360 and NΔ389 have a methionine followed by amino acids 361 and 390 to the carboxy-terminus, respectively; added initiator methionine (N); made in house; host or cells: E. coli
Source text: Two DNAs used as probes in this study were generated by endonuclease digestion of cloned DNAs. That with two EBNA1-binding sites is the 131 bp, SalI to PstI fragment derived from p880 (30); and that with five GAL4-binding sites is the 109 bp, HinDIII to XbaI fragment derived from G5BCAT (31). DNA fragments were purified from agarose gels. […] This method distinguishes less than two-fold differences in DNA concentrations. These DNAs were labeled with the Klenow fragment of DNA Polymerase 1 in the presence of dATP, dGTP, dTTP, and ^32P α-dCTP (Amersham), and precipitated three times to remove unincorporated label (32).
The derivatives of EBNA1 (bEBNA1, NΔ360, NΔ389) and the GAL4 derivatives (GAL4(1-94), GAL4(1-94)&54-89, GAL4(1-94)&331-361, GAL4(1-94)&372-391) used in this study were all produced and purified as previously described (28). Briefly, bEBNA1 lacks amino acids 2 through 7 and all but fifteen amino acids of the gly-gly-ala repeats and was expressed in SF21 cells (23). NΔ360 and NΔ389 lack the first 360 and 389 amino acids, respectively, and were expressed in E. coli. GAL4(1-94) contains amino acids 1 to 94 of the yeast transactivator GAL4 plus eight carboxy-terminal amino acids coded by the poly-cloning region. The fusions designated GAL4(1-94)&#—# contain the indicated residues from EBNA1 cloned in frame into the poly-cloning region. All derivatives and fragments of EBNA1 were derived from the B95-8 viral strain (33, 15).
A.A. 40-89 and A.A. 331-391 were generated by amplifying the fragment of EBNA1 encoding those amino acids with PCR primers containing SalI and XbaI sites at the 5′ ends. […] The sequence of both clones was verified using an ABI Prism automated sequencer (Applied BioSystems). Expression of the fusion proteins in BL21 bacteria containing a DE3 lysogen and carrying pLysS was done as previously described (28). […]
Gel shift assays were done as previously described (28). […] The percentage of DNA linked is determined by dividing the amount of linked DNA by the total amount of DNA in the lane. […]

[2] = biological target: bEBNA1 (derivative of EBNA1); type: biochemical, Epstein-Barr virus
Protocol: Two DNAs used as probes in this study were generated by endonuclease digestion of cloned DNAs. That with two EBNA1-binding sites is the 131 bp, SalI to PstI fragment derived from p880 (30); and that with five GAL4-binding sites is the 109 bp, HinDIII to XbaI fragment derived from G5BCAT (31). DNA fragments were purified from agarose gels. They were quantified by making serial dilutions in the presence of ethidium bromide (0.5 μg/mL) and comparing their intensities, when exposed to ultraviolet light, to that of similar dilutions of a standard DNA. This method distinguishes less than two-fold differences in DNA concentrations. These DNAs were labeled with the Klenow fragment of DNA Polymerase 1 in the presence of dATP, dGTP, dTTP, and ^32P α-dCTP (Amersham), and precipitated three times to remove unincorporated label (32).
The derivatives of EBNA1 (bEBNA1, NΔ360, NΔ389) and the GAL4 derivatives (GAL4(1-94), GAL4(1-94)&54-89, GAL4(1-94)&331-361, GAL4(1-94)&372-391) used in this study were all produced and purified as previously described (28). Briefly, bEBNA1 lacks amino acids 2 through 7 and all but fifteen amino acids of the gly-gly-ala repeats and was expressed in SF21 cells (23). […]
Gel shift assays were done as previously described (28). […] The percentage of DNA linked is determined by dividing the amount of linked DNA by the total amount of DNA in the lane.

T1 sequence (P03211 361-641, stated change not applied): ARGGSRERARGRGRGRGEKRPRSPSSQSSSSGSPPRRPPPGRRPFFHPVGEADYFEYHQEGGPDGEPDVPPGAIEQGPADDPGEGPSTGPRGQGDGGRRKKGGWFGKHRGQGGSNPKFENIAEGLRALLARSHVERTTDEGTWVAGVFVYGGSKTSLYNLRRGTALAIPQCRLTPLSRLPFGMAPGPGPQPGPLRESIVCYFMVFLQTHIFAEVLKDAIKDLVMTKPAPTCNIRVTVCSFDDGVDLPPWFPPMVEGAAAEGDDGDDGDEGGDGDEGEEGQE

B1: Rnase A: control protein (protein, UniProt P61823 27-150, looked up)
Ribonuclease pancreatic: KETAAAKFERQHMDSSTSAASSSNYCNQMMKSRNLTKDRCKPVNTFVHESLADVQAVCSQKNVACKNGQTNCYQSYSTMSITDCRETGSSKYPNCAYKTTQANKHIIVACEGNPYVPVHFDASV
Which results are given for B1?
Ki ([1]; 6.5 nM dimers of NΔ360, 20 fmols DNA with two EBNA1-binding sites, Ki = concentration of competitor which inhibits linking to 50%, read-out: Ki against NΔ360): 30 µM; IC50 ([1]; DNAs with two EBNA1-binding sites, read-out: Concentration inhibiting linking by NΔ360 to 50%): 30 µM; Amount required to reduce linking by 50% relative to A.A. 331-391 ([1]; linking by NΔ360): Approximately 1000 fold; Ki ([2]; 6.5 nM dimers of bEBNA1, 20 fmols DNA with two EBNA1-binding sites, Ki = concentration of competitor which inhibits linking to 50%, read-out: Ki against bEBNA1): > 42 µM; Sensitivity of bEBNA1-mediated linking to competitor ([2]; DNAs with two binding sites, range of concentrations tested): insensitive
